41 sequences from the nanobody polyreactivity screen of Harvey et al. (2022) can be followed below.

This data set in a line: yeast display, Sf9 membrane polyspecificity reagent, FACS + sequencing; frameworks hold sequencing errors. In a few lines: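 Polyreactivity labels are assigned by the sorting gate from which each nanobody was recovered. The gates were low and high (top ~1%), set on anti-HA fluorescence for expression and streptavidin fluorescence for reagent binding. Before sorting, galactose-induced (36–48 hours) yeast display cells were stained for 1 hour at 4 °C with 10% biotinylated, detergent-solubilized Sf9 membrane reagent.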
As for “QVQLVESGGGLVQAGGSLRLSCAASGYTFHDYAMGWYRQAPGKERELVAAISKRGGSTYYADSVKGRFTISRDNAKNTVYLQMNSLKPEDTAVYYCAKGGPHRGTGLNDYWGQGTQVTVSS”, the “polyreactivity (PSR sort gate)” value is recorded as “high polyreactivity”.

Take “QVQLVESGGGLVQAGGSLRLSCAASGYTFHYNTMGGYRQAPGKERELVATISDGGSTNYADSVKGRFTISRDNAKNTVYLQMNSLKPEDTAVYYCAALYQQFQSALVPYFDVIEEDYWGQGTQVTVSS”: the “polyreactivity (PSR sort gate)” value was “low polyreactivity”.

Turning to “QVQLVESGGGLVQAGGSLRLSCAASGYTFIVNAIGWYRQAPGKERELVAGISYRGGRTFYADSVKGRFTISRDNAKNTVYLQMNSLKPEDTAVYYCAARKTGIPFYNYDYWGQGTQVTVSS”, the “polyreactivity (PSR sort gate)” value was “low polyreactivity”.

Consider “QVQLVESGGGLVQAGGSLRLSCAASGYTFNNYAMGWYRQAPGKERELVAAISSSGGSTYYADSVKGRFTISRDNAKNTRYFQMNSLKPEDTAVYYGDGRPFGHGDYRGYYYWGQGTQVTVSS”, for which the “polyreactivity (PSR sort gate)” value was “low polyreactivity”.

For the sequence “QVQLVESGGGLVQAGGSLRLSCAASGYTFNPYVMGWYSQAPGKERELVAAISSGGSTSYADSVKGRFTISRDNAKNTVYLQMNSLKPEDTAVYYCAADWSYYYSRNYESDYWGQGTQVTVSS”, the “polyreactivity (PSR sort gate)” value is “low polyreactivity”.

For “QVQLVESGGGLVQAGGSLRLSCAASGYTFPLYAMGWYRQAPGKERELVADINIGGASTYYADSVKGRFTISRDNAKNTVYLQMYSLKPEDTAVYYCAKEYYDGYFPTFDYDYWGQGTQVTVSS”, the “polyreactivity (PSR sort gate)” value was “low polyreactivity”.

As for “QVQLVESGGGLVQAGGSLRLSCAASGYTFPLYAMGWYTQAPGKERELVADINIGGASTYYADSVKGRFTISRDNAKNTVYLQMNSLKPEDTAVYDCAKEYYDGYFPTFEYDYWGQGTQVTVSS”, the “polyreactivity (PSR sort gate)” value was “low polyreactivity”.

Turning to “QVQLVESGGGLVQAGGSLRLSCAASGYTFPSYALGWYRQAPGKERELVAVITIGGTYYADSVKGRFTISRDNAKNTVYLQMNSLKPEDTAVYYCAADWAWDYYRGFDYLGQGTQVTVSS”, the “polyreactivity (PSR sort gate)” value was “low polyreactivity”.

Regarding “QVQLVESGGGLVQAGGSLRLSCAASGYTFPYYTMGWYRQAPGKERELVAAISSGGRTKYADSVKGRFTISRDNAKNTVYLQMNSMKPEDTAVYYCNAVHSPAQCRSKYYPYNYWGQGTQVTVSS”, the “polyreactivity (PSR sort gate)” value is on record as “high polyreactivity”.

Regarding “QVQLVESGGGLVQAGGSLRLSCAASGYTFQENAMGWYRQAPGKERELVAAISYGGGSTYYADSVKGRFTISRDNAKNTVYLQMNRLKPEDTAVYYCADDGGSAYAWYFAELYGYWGQGTQVTVSS”, the “polyreactivity (PSR sort gate)” value is reported as “low polyreactivity”.

As for “QVQLVESGGGLVQAGGSLRLSCAASGYTFQHYGMGWYRQAPGKERELVAAITRRGSGTYYADSVKGRFTISRDNAKNTVYLQMNRLKPEDTAVYYCAAAVGHGVDYWGQGTQVTVSS”, the “polyreactivity (PSR sort gate)” value is given as “high polyreactivity”.

As to “QVQLVESGGGLVQAGGSLRLSCAASGYTFQTYAMGCYRQAPGKERELVAAITRSGTRTYYADSVKGRFTISRDNAKNTVYLQMYSLKPEDTAVYYCAAETYYSIYDYWGQGTQVTVSS”, the “polyreactivity (PSR sort gate)” value is listed as “high polyreactivity”.

Regarding “QVQLVESGGGLVQAGGSLRLSCAASGYTFQWYDMGWYRQAPGKERELVASISWRGGSTYYADSVKGRFTISRDNAKNTVYLQMNSLKPEDTAVYYCAASLWPDYEYDYWGQGTQVTVSS”, the “polyreactivity (PSR sort gate)” value is “low polyreactivity”.

“QVQLVESGGGLVQAGGSLRLSCAASGYTFQYNDMGWYRQAPGKERELVAGISIGGSTNYADSVKGRFTISRDNAKNTVYLQMNSLKPEDTAVYYCAARTLWFPGTTSTSVGSKYGYWGQGTQVSVSS”: the “polyreactivity (PSR sort gate)” value was “low polyreactivity”.

As for “QVQLVESGGGLVQAGGSLRLSCAASGYTFRLYAMGWYRQAPGKERELVAAITSRGGTFYADSVKGRFTLSRDNAKNTVYLQMNSLKPEDTAVYYCAVAPNYPDFRRAIYLYDYWGQGTQLTVSS”, the “polyreactivity (PSR sort gate)” value is listed as “low polyreactivity”.

For the sequence “QVQLVESGGGLVQAGGSLRLSCAASGYTFRRYAMGWYRQAPGKERELVAAINYSGGSTYYADSVKGRFTISRDNSKNTVYLQMNSLKPEDTAVYYCAARVPSPYVATYYYWGQGTQVTVSS”, the “polyreactivity (PSR sort gate)” value is “high polyreactivity”.

For the sequence “QVQLVESGGGLVQAGGSLRLSCAASGYTFRSYAMGWYRQAPGKEREFVASISSSGGSTYYADSVKGRFTISRDNAKNTVYLQMNSLKPEDTAVYYCAASVGSYPYDEYDYWGQGTQVTVSS”, the “polyreactivity (PSR sort gate)” value is “low polyreactivity”.

In the case of “QVQLVESGGGLVQAGGSLRLSCAASGYTFRTNVMGWYRQAPGKERELVAAISSDGSTNYADSVKGRFTISRDNAKNTVYLQMNSLKPEDTAVYYCAAPWTQILDYWGQGTQVTVSS”, the “polyreactivity (PSR sort gate)” value is “low polyreactivity”.

Regarding “QVQLVESGGGLVQAGGSLRLSCAASGYTFRWYVMGWYRQAPGKERELVAAISQSGGDTYYADSVKGRFTISRDNAKNTVYLQMNSLKPEDTAVYYCAVGRVGRFYYWGQGTQVTVSS”, the “polyreactivity (PSR sort gate)” value is “high polyreactivity”.

In the case of “QVQLVESGGGLVQAGGSLRLSCAASGYTFRYNAMGWYRQAPGKERELVASITFSGGRTFYADSVKGRFTISRDNAKNTVYLQMNSLKPEDTAVYYCAAVRWGRRSGGLVAEYDYWGQGTQVTVSS”, the “polyreactivity (PSR sort gate)” value was “high polyreactivity”.

Turning to “QVQLVESGGGLVQAGGSLRLSCAASGYTFRYNTLGGYSQAPGKEREFVAAISSGVGNTYFAVSVKGRFTISRDNAKNTVYLQMNSLKPEDTAVYYCNADYKSSYYWYLWYNYWGQGTQVTVSS”, the “polyreactivity (PSR sort gate)” value is “low polyreactivity”.

Turning to “QVQLVESGGGLVQAGGSLRLSCAASGYTFSAYAMGWYRQAPGKERELVAVINRSGVRTYYADSVKGRFTISRDNAKNTVYLQMNSLKPEDTAVYYCAAPPRANLFDYWGQGTQVTVSS”, the “polyreactivity (PSR sort gate)” value was “high polyreactivity”.

In the case of “QVQLVESGGGLVQAGGSLRLSCAASGYTFSFNAMGWYRKAPGKEREMVAAINRGTSTNYADSVKGRFTISRDNAKNTVYLQMNSLKPEDTAVYYCAAGFRRRAGRYDLDYWGQGTQVTVSS”, the “polyreactivity (PSR sort gate)” value is on record as “high polyreactivity”.

With “QVQLVESGGGLVQAGGSLRLSCAASGYTFSQNAMGWYRPAPGKERELVAGITTRGTTTYYADSVKGRFTISRDNAKNTVYLQMNSLKPEDTAVYYCAADNSYTDNYWGQGTQVTVSS”, the “polyreactivity (PSR sort gate)” value is “low polyreactivity”.

With “QVQLVESGGGLVQAGGSLRLSCAASGYTFSTYAMGWYRQAPGKERELFAAISYSGGRTRYADSVKGRFTISRDNAKNTVYLQMNSLKPEDTAVYYCAAKSGYGYGYWGQGTQVTVSS”, the “polyreactivity (PSR sort gate)” value is “high polyreactivity”.

Consider “QVQLVESGGGLVQAGGSLRLSCAASGYTFSYNAMGWYRQAPGKERELVAAISRSGGSTYYADSVKGRFTISRDNAKNTVYLQMNSLKPEDTAVYYCAAKRVSVPYGYWGQGTQVTVSS”, for which the “polyreactivity (PSR sort gate)” value is “high polyreactivity”.

For the sequence “QVQLVESGGGLVQAGGSLRLSCAASGYTFTGYAMGGYRQAPGKERECVAGITWRTGRTYYADSVKGRFTISRDNAKNTGYLQMNSLIPEDTAVYYCNKDHQRGYYWSYDYWGQGTQVTVSS”, the “polyreactivity (PSR sort gate)” value was “low polyreactivity”.

In the case of “QVQLVESGGGLVQAGGSLRLSCAASGYTFTGYAMGGYRQAPGKERELFATITRGGSTYYADSVKGRFTISRDNAKNTVYLPMNSLKPEDTAVYYCATRVQYYVKSTTQYGYGYWGQGTQVTVSS”, the “polyreactivity (PSR sort gate)” value is on record as “low polyreactivity”.

As to “QVQLVESGGGLVQAGGSLRLSCAASGYTFTIYAMGWYRQAPGKERELVAAITGGGGRTYYADSVKGRFTISRDNAKNTVYLQMNSLKPEDTAVYYCAASGPIVGMNYWGQGTQVTVSS”, the “polyreactivity (PSR sort gate)” value was “high polyreactivity”.

“QVQLVESGGGLVQAGGSLRLSCAASGYTFTIYAMGWYRQAPGKERELVASISIDGSTYYADSVKGRFTISRDNAKNTVYLQMNSLKREDTAVYYCAADYYYYTPGFDYWGQGTQVTVSS”: the “polyreactivity (PSR sort gate)” value is on record as “low polyreactivity”.

“QVQLVESGGGLVQAGGSLRLSCAASGYTFTRNAMGWYRQAPGKERELVATISGSGGGTYYADSVKGRFTISRDNAKNTVYLQMNSLKPEDTAVNYCNARRWFYWQGTARYDYWGQGTQVTVSS”: the “polyreactivity (PSR sort gate)” value was “low polyreactivity”.

Regarding “QVQLVESGGGLVQAGGSLRLSCAASGYTFVGYAMGWYRQAPGKERELVAAITNGGNTNYADSVKGRFTISRDNAKNTVYLQMNSLKPEDTAVYYCATRHSRRYSWIKYYGIGYDYWGQGTQVTVSS”, the “polyreactivity (PSR sort gate)” value is given as “high polyreactivity”.

With “QVQLVESGGGLVQAGGSLRLSCAASGYTFVIYAMGWYRQAPGKERELVAAITTIGGRTYYADSVKGRFTISRDNAKNTVYLQMNSLKPEDTAVYYCAADIRSNRLYDGGYWGQGTHVTVSS”, the “polyreactivity (PSR sort gate)” value is given as “low polyreactivity”.

For the sequence “QVQLVESGGGLVQAGGSLRLSCAASGYTFVLNAMGWYRQAPGKEREFVAAITWSGGSTYYADSVKGRFTISRDNAKNTVYLQMNSLNPEDTAVYYCAATAHYFGEYDYWGQGTQVTVSS”, the “polyreactivity (PSR sort gate)” value is “low polyreactivity”.

Turning to “QVQLVESGGGLVQAGGSLRLSCAASGYTFVRYALGWYRQAPGKEMELVAAMSRSGGSTYYADSVKGRFTISRDNAKNTVYLQMNSLKPEDTAVYYCNAYPYSYYDYDYWGQGTQVTVSS”, the “polyreactivity (PSR sort gate)” value is listed as “high polyreactivity”.

Consider “QVQLVESGGGLVQAGGSLRLSCAASGYTFVTYAMGWYRQAPGKERELVAAISYTGGSTYYADSEKGRFTISRDNAKNTVYLQMNSLKPEDTAVYYCNTRYSLYTKYAYYDEHDYWGQGTQVTVSS”, for which the “polyreactivity (PSR sort gate)” value is reported as “low polyreactivity”.

For the sequence “QVQLVESGGGLVQAGGSLRLSCAASGYTFVYYAMGLYREAPGKERELVAAITSGGRTNYADSVKGRFTISRDNAKNTVYLQMNSLKPEDTAVYYCNVDGYYLFVRGYEYWGQGTQVTVSS”, the “polyreactivity (PSR sort gate)” value is on record as “low polyreactivity”.

Regarding “QVQLVESGGGLVQAGGSLRLSCAASGYTFWRYAMGWYRQAPGKERELVAAISQSGGRTYYADSVKGRFTISRDNAKNTVYLQMNSLKPEDTAVYYCATSSTQGDDYWGQGTQVTVSS”, the “polyreactivity (PSR sort gate)” value was “high polyreactivity”.

For the sequence “QVQLVESGGGLVQAGGSLRLSCAASGYTFYANAMGWYRQAPGKEREFVASSTWSGGSTYYADSVKGRFTISRDNAKNTVYFQMNSLKPEDTAVYYCAADSWFKYDYWGQGTQVTVSS”, the “polyreactivity (PSR sort gate)” value is reported as “low polyreactivity”.

Consider “QVQLVESGGGLVQAGGSLRLSCAASGYTFYFYARGWYRQAPGKERELGAAITGGGTTSYADSVKGRFTISRDNAKNTVYLQMNSLKPEDTAVYYCNLLFADKSDYWGQGTQVTVSS”, for which the “polyreactivity (PSR sort gate)” value is listed as “low polyreactivity”.

With “QVQLVESGGGLVQAGGSLRLSCAASGYTFYINATGWYRQAPGKERELVAVITWSSGSTYYADSVKGRFTISRDNAKNTVYLQMNSLKPEDTAVYYCAADVTYEDGAWTIQYDYWGQGTQVTVSS”, the “polyreactivity (PSR sort gate)” value was “high polyreactivity”.
